Legend:
Experiment in all cases: purified protein
purified protein [1] = substrate: NCCC=O; format: biochemical, Lathyrus oleraceus; settings: 1 mM NAD+, 0.15 M Tris-HCl, pH 9.0
purified protein [2] = substrate: NCCCC=O; format: biochemical, Lathyrus oleraceus; settings: 1 mM NAD+, 0.15 M Tris-HCl, pH 9.0
purified protein [3] = substrate: N[C@@H](Cc1ccc(O)cc1)C(=O)NCCCC=O; format: biochemical, Lathyrus oleraceus; settings: 1 mM NAD+, 0.15 M Tris-HCl, pH 9.0
purified protein [4] = substrate: N[C@@H](Cc1ccccc1)C(=O)NCCCC=O; format: biochemical, Lathyrus oleraceus
purified protein [5] = substrate: O=CCCCNC(=O)CCC(=O)O; format: biochemical, Lathyrus oleraceus; settings: 1 mM NAD+, 0.15 M Tris-HCl, pH 9.0
purified protein [6] = substrate: O=CCCCNC(=O)CCCC(=O)O; format: biochemical, Lathyrus oleraceus; settings: 1 mM NAD+, 0.15 M Tris-HCl, pH 9.0
purified protein [7] = substrate: O=CCCNC(=O)CCC(=O)O; format: biochemical, Lathyrus oleraceus; settings: 1 mM NAD+, 0.15 M Tris-HCl, pH 9.0
purified protein [8] = substrate: O=CCCNC(=O)CCCC(=O)O; format: biochemical, Lathyrus oleraceus; settings: 1 mM NAD+, 0.15 M Tris-HCl, pH 9.0
purified protein [9] = substrate: N[C@@H](CCCC=O)C(=O)O; format: biochemical, Zea mays; settings: 2.5 mM NAD+, 0.1 M sodium pyrophosphate, pH 8.1
purified protein [10] = substrate: N[C@@H](Cc1ccc(O)cc1)C(=O)NCCC=O; format: biochemical, Zea mays; settings: 2.5 mM NAD+, 0.1 M sodium pyrophosphate, pH 8.1
purified protein [11] = substrate: N[C@@H](Cc1ccccc1)C(=O)NCCC=O; format: biochemical, Zea mays; settings: 2.5 mM NAD+, 0.1 M sodium pyrophosphate, pH 8.1
purified protein [12] = substrate: N[C@@H](Cc1ccccc1)C(=O)NCCCC=O; format: biochemical, Zea mays; settings: 2.5 mM NAD+, 0.1 M sodium pyrophosphate, pH 8.1
purified protein [13] = substrate: O=CCCCNC(=O)CC(=O)O; format: biochemical, Zea mays; settings: 2.5 mM NAD+, 0.1 M sodium pyrophosphate, pH 8.1
purified protein [14] = substrate: O=CCCNC(=O)CC(=O)O; format: biochemical, Zea mays; settings: 2.5 mM NAD+, 0.1 M sodium pyrophosphate, pH 8.1
purified protein [15] = substrate: N[C@@H](CCCC=O)C(=O)O; format: biochemical, Lathyrus oleraceus; settings: 2.5 mM NAD+, 0.1 M sodium pyrophosphate, pH 8.1
purified protein [16] = substrate: N[C@@H](Cc1ccc(O)cc1)C(=O)NCCC=O; format: biochemical, Lathyrus oleraceus; settings: 2.5 mM NAD+, 0.1 M sodium pyrophosphate, pH 8.1
purified protein [17] = substrate: N[C@@H](Cc1ccccc1)C(=O)NCCC=O; format: biochemical, Lathyrus oleraceus; settings: 2.5 mM NAD+, 0.1 M sodium pyrophosphate, pH 8.1
purified protein [18] = substrate: O=CCCCNC(=O)CC(=O)O; format: biochemical, Lathyrus oleraceus; settings: 2.5 mM NAD+, 0.1 M sodium pyrophosphate, pH 8.1
purified protein [19] = substrate: O=CCCNC(=O)CC(=O)O; format: biochemical, Lathyrus oleraceus; settings: 2.5 mM NAD+, 0.1 M sodium pyrophosphate, pH 8.1
[20] = 1 mM NAD+, 0.15 M Tris-HCl, pH 9.0
[21] = 2.5 mM NAD+, 0.1 M sodium pyrophosphate, pH 8.1

B1: PsAMADH (native pea aminoaldehyde dehydrogenase, prevailing isoenzyme 1) (Lathyrus oleraceus) (protein)
chain: MAITVSSRQLFIDGEWRVPILNKRIPNINPSTENIIGDIPAATKEDVDLAVDAAKRAISRKNGRDWSAASGSLRARYLRAIAAKIKEKKDELGKLESIDCGKPLEEALADLDDVVACFEYYAGLAEELDSKQKAPISLPMDTFKSYILKEPIGVVALITPWNYPFLMATWKIAPALAAGCAAILKPSELASVTCLELGEICKEVGLPRGVLNIVTGLGHEAGASLASHPDVDKISFTGSSATGSKIMTTAAQLVKPVSLELGGKSPIVVFEDVDLDKVAEWTVFGCFFTNGQICSATSRLIVHESIAVEFVDKLVKWAENIKISDPLEEGCRLGPIVSEAQYKKVLNCISSAKSEGATILTGGRRPEHLKKGYFVEPTIITDVTTSMQIWREEVFGPVLAVKTFSTEEEAINLANDTHYGLGSAVMSNDLERCERLSKALQAGIVWINCAQPSFIQAPWGGIKRSGFGRELGEWGLENYLSVKQVTRYTSDEPWGWYQPPSKL
notes: native, purified from 7-day-old etiolated pea seedlings
With B1 the Km (purified protein [1]) was 136 ± 11 µM, the kcat (purified protein [1]) was 3.36 ± 0.2 s⁻¹ and the kcat/Km (purified protein [1]) was 24700 M⁻¹ s⁻¹. For the same protein, the Km (purified protein [2]) was 103 ± 17 µM, the kcat (purified protein [2]) was 1.34 ± 0.07 s⁻¹ and the kcat/Km (purified protein [2]) was 13000 M⁻¹ s⁻¹. The Km (purified protein [3]) was 174 ± 42 µM, the kcat (purified protein [3]) was 0.22 ± 0.04 s⁻¹ and the kcat/Km (purified protein [3]) was 1300 M⁻¹ s⁻¹. For the same protein, the Km (purified protein [4]; [20]) was 101 ± 10 µM, the kcat (purified protein [4]; [20]) was 0.17 s⁻¹ and the kcat/Km (purified protein [4]; [20]) was 1700 M⁻¹ s⁻¹. It also gave a Km (purified protein [5]) of 138 ± 6 µM, a kcat (purified protein [5]) of 1.61 ± 0.07 s⁻¹ and a kcat/Km (purified protein [5]) of 11700 M⁻¹ s⁻¹. For the same protein, the Km (purified protein [6]) was 427 ± 33 µM, the kcat (purified protein [6]) was 1.49 ± 0.11 s⁻¹ and the kcat/Km (purified protein [6]) was 3500 M⁻¹ s⁻¹. The Km (purified protein [7]) was 513 ± 36 µM, the kcat (purified protein [7]) was 4.13 ± 0.2 s⁻¹ and the kcat/Km (purified protein [7]) was 8100 M⁻¹ s⁻¹. It also gave a Km (purified protein [8]) of 506 ± 92 µM, a kcat (purified protein [8]) of 1.29 ± 0.14 s⁻¹ and a kcat/Km (purified protein [8]) of 2500 M⁻¹ s⁻¹.

B2: ZmALDH7 (Zea mays) (protein)
chain: MGAFAKEEHQFLAELGLAQRNPGAFACGAWGGSGPTVTSTSPTNNQVIAEVVEASVHDYEEGMRACFDAAKTWMAIPAPKRGEIVRQIGDALRAKLHHLGRLVSLEMGKILPEGIGEVQEIIDMCDYAVGLSRQLNGSIIPSERPNHMMMEVWNPLGVVGVITAFNFPCAVLGWNACIALVCGNCVVWKGAPTTPLITIAMTKIVASVLEKNNLPGAIFTSFCGGTEIGQAIALDIRIPLVSFTGSTRAGLMVQQQVSARFGKCLLELSGNNAIIVMDDADIQLAVRSVLFAAVGTAGQRCTTCRRLILHENIYQTFLDQLVEVYKQVRIGDPLEKGTLLGPLHTPASKENFLKGIQTIKSQGGKILFGGSAIESEGNFVQPTIVEITPSAPVVKEELFGPVLYVMKFQSLKEAIEINNSVPQGLSSSIFTKRPDIIFKWLGPHGSDCGIVNVNIPTNGAEIGGAFGGEKATGGGREAGSDSWKQYMRRATCTINYGSELPLAQGINFG
notes: recombinant
B2 was tested, and the Km (purified protein [9]) was 191 ± 14 µM, the kcat (purified protein [9]) was 0.77 ± 0.04 s⁻¹ and the kcat/Km (purified protein [9]) was 4000 M⁻¹ s⁻¹. For the same protein, the Km (purified protein [10]) was 216 ± 56 µM, the kcat (purified protein [10]) was 0.06 ± 0.01 s⁻¹ and the kcat/Km (purified protein [10]) was 280 M⁻¹ s⁻¹. It also gave a Km (purified protein [11]) of 66 ± 12 µM, a kcat (purified protein [11]) of 0.06 ± 0.01 s⁻¹ and a kcat/Km (purified protein [11]) of 910 M⁻¹ s⁻¹. For the same protein, the Km (purified protein [12]) was 457 ± 55 µM, the kcat (purified protein [12]) was 0.02 s⁻¹ and the kcat/Km (purified protein [12]) was 44 M⁻¹ s⁻¹. It also gave a Km (purified protein [13]) of 1493 ± 225 µM, a kcat (purified protein [13]) of 0.18 ± 0.01 s⁻¹ and a kcat/Km (purified protein [13]) of 120 M⁻¹ s⁻¹. The Km (purified protein [14]) was 1997 ± 142 µM, the kcat (purified protein [14]) was 0.15 ± 0.01 s⁻¹ and the kcat/Km (purified protein [14]) was 75 M⁻¹ s⁻¹.

B3: PsALDH7 (Lathyrus oleraceus) (protein)
chain: GSDSNNLGFLKEIGLGATNIGSFINGQWKANGPTVHSVNPSTNQVIASVTEATLDDYEEGLRASSEAAKTWRTVPAPKRGEIVRQIGDALRAKLDPLGRLVALEMGKILAEGIGEVQEIIDMCDYSVGLSRQLNGSIIPSERPEHMMFEVWNPLGIVGVITAFNFPCAVLGWNACIALVGGNTVVWKGAPTTPLITVAVTKLIAEVFERNNLPGAIFTALCGGADIGHAIAKDTRIPLVSFTGSSKVGALVQQTVSQRFGKTLLELSGNNAIIVMDDADITLAVRSIFFAAVGTAGQRCTTCRRLYLHESVYANVLEQLTALYKQVKIGNPLEEGTLVGPLHTRSAVENFKNGISAIKSQGGKIVTGGSVLESEGNFVVPTIVEISADAAVVKEELFAPVLYVMKFKDLEEAIALNNSVPQGLSSSIFTQKPSTIFKWIGPSGSDCGIVNVNIPTNGAEIGGAFGGEKATGGGREAGSDSWKQYMRRSTCTINYGSELPLAQGINFG
notes: recombinant
B3 showed a Km (purified protein [15]) of 172 ± 32 µM, a kcat (purified protein [15]) of 0.77 ± 0.09 s⁻¹ and a kcat/Km (purified protein [15]) of 4500 M⁻¹ s⁻¹. The Km (purified protein [16]) was 252 ± 45 µM, the kcat (purified protein [16]) was 0.09 ± 0.01 s⁻¹ and the kcat/Km (purified protein [16]) was 360 M⁻¹ s⁻¹. For the same protein, the Km (purified protein [17]) was 74 ± 7 µM, the kcat (purified protein [17]) was 0.07 s⁻¹ and the kcat/Km (purified protein [17]) was 950 M⁻¹ s⁻¹. The Km (purified protein [4]; [21]) was 656 ± 55 µM, the kcat (purified protein [4]; [21]) was 0.04 s⁻¹ and the kcat/Km (purified protein [4]; [21]) was 61 M⁻¹ s⁻¹. It also gave a Km (purified protein [18]) of 703 ± 72 µM, a kcat (purified protein [18]) of 0.13 ± 0.01 s⁻¹ and a kcat/Km (purified protein [18]) of 180 M⁻¹ s⁻¹. For the same protein, the Km (purified protein [19]) was 2522 ± 203 µM, the kcat (purified protein [19]) was 0.19 ± 0.01 s⁻¹ and the kcat/Km (purified protein [19]) was 75 M⁻¹ s⁻¹.

Source: paper PMC11362210, “N-carboxyacyl and N-α-aminoacyl derivatives of aminoaldehydes as shared substrates of plant aldehyde dehydrogenases 10 and 7” (Amino Acids, 2024)
